# Measurements from patent US6835378B2, “Method and compositions for inhibiting thrombin-induced coagulation” (The Texas A&M University System University, priority 2001, dated 2004).
# B1: rSdrG(50-597): recombinant His-tagged A region (residues 50-597) of SdrG, a fibrinogen-binding MSCRAMM from S. epidermidis (protein)
# chain: HHHHHHAEENTVQDVKDSNMDDELSDSNDQSSNEEKNDVINNSQSINTDDDNQIKKEETNSNDAIENRSKDITQSTTNVDENEATFLQKTPQDNTQLKEEVVKEPSSVESSNSSMDTAQQPSHTTINSEASIQTSDNEENSRVSDFANSKIIESNTESNKEENTIEQPNKVREDSITSQPSSYKNIDEKISNQDELLNLPINEYENKVRPLSTTSAQPSSKRVTVNQLAAEQGSNVNHLIKVTDQSITEGYDDSDGIIKAHDAENLIYDVTFEVDDKVKSGDTMTVNIDKNTVPSDLTDSFAIPKIKDNSGEIIATGTYDNTNKQITYTFTDYVDKYENIKAHLKLTSYIDKSKVPNNNTKLDVEYKTALSSVNKTITVEYQKPNENRTANLQSMFTNIDTKNHTVEQTIYINPLRYSAKETNVNISGNGDEGSTIIDDSTIIKVYKVGDNQNLPDSNRIYDYSEYEDVTNDDYAQLGNNNDVNINFGNIDSPYIIKVISKYDPNKDDYTTIQQTVTMQTTINEYTGEFRTASYDNTIAFSTSSGQGQGDLPPE
# What was measured:
# immobilized Fg = target: T1, immobilized Fg (Homo sapiens, UniProt P02675); experiment: ELISA: rSdrG(50-597) binding to immobilized Fg
# T1 construct: purchased Enzyme Research Labs
# T1 sequence (P02675 31-491): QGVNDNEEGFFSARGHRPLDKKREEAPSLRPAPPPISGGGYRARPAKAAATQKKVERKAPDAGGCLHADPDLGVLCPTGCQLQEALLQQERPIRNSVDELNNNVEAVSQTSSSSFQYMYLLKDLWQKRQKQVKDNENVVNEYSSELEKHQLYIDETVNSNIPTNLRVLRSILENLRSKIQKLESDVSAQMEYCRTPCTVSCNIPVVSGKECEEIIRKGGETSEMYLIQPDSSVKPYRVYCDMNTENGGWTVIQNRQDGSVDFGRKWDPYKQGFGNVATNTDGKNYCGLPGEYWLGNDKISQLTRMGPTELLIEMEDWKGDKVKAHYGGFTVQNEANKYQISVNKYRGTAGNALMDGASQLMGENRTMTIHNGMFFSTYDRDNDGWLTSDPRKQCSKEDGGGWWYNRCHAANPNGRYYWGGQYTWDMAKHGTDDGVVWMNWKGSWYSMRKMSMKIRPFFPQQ
# T1 sequence (P02671 20-629 partner limits assumed): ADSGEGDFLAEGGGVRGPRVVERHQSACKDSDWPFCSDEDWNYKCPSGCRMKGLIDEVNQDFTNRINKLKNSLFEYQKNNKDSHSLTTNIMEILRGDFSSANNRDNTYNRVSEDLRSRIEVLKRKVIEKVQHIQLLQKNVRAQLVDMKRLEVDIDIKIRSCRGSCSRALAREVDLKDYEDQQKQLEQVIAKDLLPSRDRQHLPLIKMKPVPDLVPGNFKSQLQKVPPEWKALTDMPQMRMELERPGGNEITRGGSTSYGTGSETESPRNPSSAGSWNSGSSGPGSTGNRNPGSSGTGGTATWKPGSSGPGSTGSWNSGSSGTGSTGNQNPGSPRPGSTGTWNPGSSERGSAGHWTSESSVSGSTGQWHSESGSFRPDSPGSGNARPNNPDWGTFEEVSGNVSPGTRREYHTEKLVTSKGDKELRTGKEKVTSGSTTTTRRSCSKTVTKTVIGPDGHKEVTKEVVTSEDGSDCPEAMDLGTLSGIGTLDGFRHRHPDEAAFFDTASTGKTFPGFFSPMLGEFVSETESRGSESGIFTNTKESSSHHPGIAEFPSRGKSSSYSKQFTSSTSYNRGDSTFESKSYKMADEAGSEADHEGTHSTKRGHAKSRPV
# T1 sequence (P02679 27-433 partner limits assumed): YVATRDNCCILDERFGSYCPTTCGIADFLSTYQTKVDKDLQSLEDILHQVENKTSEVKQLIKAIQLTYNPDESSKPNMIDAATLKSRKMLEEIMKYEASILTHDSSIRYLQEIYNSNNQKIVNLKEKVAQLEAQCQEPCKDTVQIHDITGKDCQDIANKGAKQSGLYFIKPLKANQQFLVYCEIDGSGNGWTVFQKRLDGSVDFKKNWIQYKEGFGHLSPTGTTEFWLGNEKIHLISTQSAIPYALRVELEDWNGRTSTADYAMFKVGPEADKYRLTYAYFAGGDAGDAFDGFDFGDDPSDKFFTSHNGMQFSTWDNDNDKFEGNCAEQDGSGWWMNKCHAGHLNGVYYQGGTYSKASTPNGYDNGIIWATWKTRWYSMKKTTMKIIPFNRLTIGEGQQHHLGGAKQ
# Method: ELISA—Microtiter plates (Immulon 4, Dynatech Laboratories Inc.) were coated with 1 μg of Fg (Enzyme Research Labs) in PBS, pH 7.5 for 18 h at 4° C. Plates were washed three times with PBS, 0.05% Tween 20 (PBST) and blocked with 1% (w/v) bovine serum albumin (BSA) for 1 h at room temperature. Plates were washed three times with PBST and rSdrG(50-597), diluted into PBS, was added to the wells and the plate was incubated for 1 h at room temperature. Plates were washed three times with PBST and bound rSdrG(50-597) was detected by adding a 1:2000 dilution of an anti-His-tag mAb (Clontech) in PBST, 0.1% BSA. Plates were incubated for 1 h at room temperature and then washed three times with PBST. A 1:2000 dilution of goat anti-mouse alkaline phosphatase (AP)-conjugated polyclonal antibodies (Bio-Rad) in PBST, 0.1% BSA were added to the wells and the plate was incubated for 1 h at room temperature. Plates were washed three times with PBST and developed with p-nitrophenyl phosphate (Sigma) in 1 M diethanolamine, 0.5 mM MgCl2, pH 9.0 at room temperature for ˜30 min. Plates were read at 405 nm using an ELISA plate reader (Thermomax microplate reader, Molecular Devices).
# [1] = target: Fg Bβ chain peptide β1-25 (Homo sapiens, UniProt P02675); settings: read-out: KD for interaction with peptide β1-25; 10 nM fluorescein-labeled β1-25, 3 h, room temperature
# Method: Fluorescence Polarization—Fluorescence polarization was used to determine the equilibrium dissociation constant (KD) for the interaction of rSdrG(50-597) with peptide β1-25. The peptide was labeled with fluorescein as previously described (18). Increasing concentrations of rSdrG(50-597) in PBS, pH 7.5, were incubated with 10 nM labeled peptide for 3 h in the dark at room temperature. Reactions were allowed to reach equilibrium. Polarization measurements were taken with a Luminescence Spectrometer LS50B (Perkin Elmer) using FL WinLab software (Perkin Elmer). Binding data was analyzed by nonlinear regression used to fit a binding function as defined by the following equation: [formula]
# [2] = system: thrombin-induced fibrin clot formation; experiment: Fg coagulation assay (fibrin clot inhibition); format: biochemical; settings: 3.0 μM Fg, 0-6.0 μM protein, 1.0 NIH unit/ml thrombin, OD 405 nm
# Method: Fg Coagulation Assay—150 μl of a 3.0 μM Fg solution was incubated with 10 μl of rSdrG(50-597) or BSA (1.0-6.0 μM) and 50 μl of thrombin (Sigma) (1.0 NIH unit/ml) in microtiter wells at room temperature. Clot formation was monitored by measuring the increase in optical density (OD) at 405 nm over time and expressed as Vmax (mOD/min). A plate reader (Thermomax microplate reader, SOFTmax software, Molecular Devices) was used to monitor OD. Using the kinetic mode with one wavelength (L1=405 nm), samples were read every 10 sec for 5 min. In this assay, 1.0 NIH unit/ml of thrombin incubated with 3.0 μM Fg produced a fibrin clot in 5 min at room temperature.
# rSdrG(50-597) Inhibits Thrombin-Induced Fibrin Clot Formation—In the final stages of the blood coagulation cascade, thrombin cleaves Fg releasing the fibrinopeptides and producing fibrin monomers. These fibrin monomers then polymerize to form a fibrin clot (20). […] To test this hypothesis, we designed a fibrin clot inhibition assay in which 3.0 μM Fg, 0-6.0 μM rSdrG(50-597) and 1.0 NIH unit/ml of thrombin were incubated and the formation of a fibrin clot was monitored by measuring the increase in optical density at 405 nm.
molecule,measurement,setting,value
B1,binding to immobilized Fg,immobilized Fg,bound immobilized Fg
same,Kd,[1],140 nM
same,fibrin clot formation,[2],inhibited fibrin clot formation in a concentration dependent manner
same,fibrin clot formation,[2]; listed as SdrG,inhibit thrombin-induced fibrinogen coagulation
